{"source": "paper PMC11584738", "biological_target": "His-GST-TRP (without signal peptide) (Verticillium dahliae strain V991)", "assay": "MST", "data": [{"substance": "GST-CTL1 (without signal peptide) (natural protein)", "values": [{"measurement": "Kd", "value": 1790, "unit": "nM"}]}]}
